Measured values: patent US20240400717A1, “Antibody Binding to CHI3L1 for Treating Cancer” (National Cheng Kung University, priority 2021, published 2024)

T1: CHI3L2 (Homo sapiens, UniProt Q15782)
T1 sequence (Q15782 27-390): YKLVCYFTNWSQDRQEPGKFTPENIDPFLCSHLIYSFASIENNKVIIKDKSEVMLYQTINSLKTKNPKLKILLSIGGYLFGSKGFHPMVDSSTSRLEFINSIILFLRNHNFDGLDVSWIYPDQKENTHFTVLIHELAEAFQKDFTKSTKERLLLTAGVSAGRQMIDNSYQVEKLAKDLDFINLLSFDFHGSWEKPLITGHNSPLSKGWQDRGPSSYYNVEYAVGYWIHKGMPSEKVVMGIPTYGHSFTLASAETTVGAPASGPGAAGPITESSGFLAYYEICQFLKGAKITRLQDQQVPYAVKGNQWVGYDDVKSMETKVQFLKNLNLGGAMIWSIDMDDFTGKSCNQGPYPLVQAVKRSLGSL

B1: 293R3-2: fully human anti-CHI3L1 IgG1 mAb, Table 1 No. 2; heavy chain SEQ ID NO: 65, light chain SEQ ID NO: 66 (antibody, listed as Homo sapiens)
VH: QVQLQESGPGLVEPSGTLSLTCAVSGGSISSSNWWSWVRQHPGKGLEWIGEIYHSGSTNYNPSLRSRVTISVDKSKNQFSLELSSVTAADTAVYYCAGDQRMEDDAFDIWGQGTMVTVSS
light: QSALTQPASVSGSPGQSITISCTGTSSDVGGYNYVSWYQQHPGKAPKLMIYDVSNRPSGVSNRFSGSKSGNTASLTISGLQAEDEADYYCSSYTSSSTLYVFGTGTKVTVLGQPKANPTVTLFPPSSEELQANKATLVCLISDFYPGAVTVAWKADGSPVKAGVETTKPSKQSNNKYAASSYLSLTPEQWKSHRSYSCQVTHEGSTVEKTVAPTECS
B2: 293R3-4: fully human anti-CHI3L1 IgG1 mAb, Table 1 No. 4; heavy chain SEQ ID NO: 73, light chain SEQ ID NO: 74 (antibody, listed as Homo sapiens)
VH: EVQLVQSGAEVKKPGATVKISCKVSGYSFTDYYIHWVQQAPGKGLEWMGFVDPENGETIYAEKFQGRVTITADTSTDTAYMELSSLRSDDTAVYYCATDRDYDDSSGNAFDIWGQGTMVTVSS
light: SYELTQPPSVSVSTGQTATITCSGDILGDEYAFWYQQKAGQSPVLVIYLDTRRPSGIPERFSGSNSGDTATLTISETQPVDEAVYFCQGWDSSTALYVFGTGTKVTVLGQPKANPTVTLFPPSSEELQANKATLVCLISDFYPGAVTVAWKADGSPVKAGVETTKPSKQSNNKYAASSYLSLTPEQWKSHRSYSCQVTHEGSTVEKTVAPTECS
B3: R4-4: fully human anti-CHI3L1 IgG1 mAb, Table 1 No. 9; heavy chain SEQ ID NO: 9, light chain SEQ ID NO: 10 (antibody, listed as Homo sapiens)
VH: EVQLLESGGGLLQPGGSLRLSCAASGLTFRNYAMTWVRQAPGKGLEWVSTISGNGDETFYADSVKGHFTISRDNSKDTVYLQMNSLRAEDTAVYYCAKGGHYSFFDSWGQGSPVTVSS
light: NFMLTQPHSVSESPGKTVTISCTRSSGSIASNYVQWYQQRPGSSPTTVIYEDNQRPSGVPDRFSGSIDSSSNSASLTISGLKTEDEADYYCQSYDSSNYVFGTGTKVTVLGQPKANPTVTLFPPSSEELQANKATLVCLISDFYPGAVTVAWKADGSPVKAGVETTKPSKQSNNKYAASSYLSLTPEQWKSHRSYSCQVTHEGSTVEKTVAPAECS
B4: R4-54: fully human anti-CHI3L1 IgG1 mAb, Table 1 No. 34; heavy chain SEQ ID NO: 33, light chain SEQ ID NO: 34 (antibody, listed as Homo sapiens)
VH: QVQLVESGGGVVQPGRSLRLSCAASGFTFSSYGMHWVRQAPGKGLEWVAVISYDGSDKDYADSVKGRFTISRDNSKNTLFLQMNSLRAEDTAVYYCARDDYDSTYYFDNWGQGTTVTVSS
light: SYELTQPPSVSVSPGQTASITCSGDILADQYASWYQQKPGQSPVLVIYHDTKRPSGVPERFSGSTSGNTATLTISGTQAMDEAAYYCQAWDINTAWVFGGGTQLTVLGQPKAAPSVTLFPPSSEELQANKATLVCLISDFYPGAVTVAWKADSSPVKAGVETTTPSKQSNNKYAASSYLSLTPEQWKSHRSYSCQVTHEGSTVEKTVAPTECS

Tests used:
[1] = system: MiaPaCa-2, SW480 and A549 cells; assay: Wound healing assay with rCHI3L1; assay type: cell-based, human; conditions: MiaPaCa-2, SW480, A549; 16 hours
Method: Since AKT regulates cell migration, we further performed wound healing assay to examine the anti-migratory effect of mAbs on pancreatic (MiaPaCa-2), colorectal (SW480), and lung (A549) cells. We observed that after 16 hours, the wound closure area was increased compared to that in control groups upon rCHI3L1 treatment. […] Taken together, our fully human monoclonal CHI3L1 neutralizing antibody clones R4-4, R4-54, 293R3-2, and 293R3-4 blocked the CHI3L1 induced signaling and cell behaviors of tumor cells. The data was presented as mean±S.D. (n=3 per group). P values were determined by one-way ANOVA. * P<0.05, ** P<0.01, *** P<0.001, **** P<0.0001.

CHI3L2 = target: T1, CHI3L2; assay: ELISA binding specificity, CHI3L2; conditions: mAbs 1 μg/ml; coated protein 2.5 μg/ml to 0 μg/ml
Method: Four selected clones of mAbs including R4-4, R4-54, 293R3-2, and 293R3-4 were further tested for blocking effect on human colorectal (HCT116, SW480, and SW620) and pancreatic cancer cell lines (PANC1 and MiaPaCa-2). […] P values were determined by one-way ANOVA. * P<0.05, ** P<0.01, *** P<0.001, **** P<0.0001. For binding specificity examination, we further coated different concentration of recombinant CHI3L1 protein, and two other major proteins in chitinase family including human chitotriosidase-1 (CHIT1) and CHI3L2 from 2.5 μg/ml to 0 μg/ml, on 96-well plate.

PANC1 and H460 cells = assay: CCK-8 cell viability assay with rCHI3L1; assay type: cell-based, human; conditions: PANC1 and H460, rCHI3L1 with mAbs at two doses
Method: PI3K/AKT/mTOR signaling pathway is important in regulating cell proliferation, survival and migration (Xu et al. 2020). Therefore, we investigated the effect of four selected mAbs on cancer cell behaviors. Human pancreatic (PANC1) and large cell cancer of the lung (H460) cells were treated with rCHI3L1 only or together with mAbs at two doses, and then subjected to cell counting kit 8 (CCK-8) cell viability assay. […] P values were determined by one-way ANOVA. * P<0.05, ** P<0.01, *** P<0.001, **** P<0.0001.

[2] = target: T2, CHI3L1 binding to IL-13Rα2 on A549 cell line (Homo sapiens, UniProt P36222); assay: Functional screen: block of CHI3L1 binding to IL-13Rα2 on A549 cell line; assay type: cell-based; conditions: A549 cells, compared with CHI3L1 only
T2 construct: host or cells: A549 cells carry the receptor
T2 sequence (P36222 22-383): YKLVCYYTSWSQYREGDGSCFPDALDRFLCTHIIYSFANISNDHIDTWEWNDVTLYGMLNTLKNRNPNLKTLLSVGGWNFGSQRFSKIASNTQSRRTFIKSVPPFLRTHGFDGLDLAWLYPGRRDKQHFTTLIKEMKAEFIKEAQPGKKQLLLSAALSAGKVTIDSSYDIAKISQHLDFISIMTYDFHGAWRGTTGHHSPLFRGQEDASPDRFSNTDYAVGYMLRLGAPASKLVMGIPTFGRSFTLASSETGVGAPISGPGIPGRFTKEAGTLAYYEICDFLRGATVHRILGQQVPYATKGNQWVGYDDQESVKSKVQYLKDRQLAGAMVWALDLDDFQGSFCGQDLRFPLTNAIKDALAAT
Text: CHI3L1 is known to associate with different receptors, such as IL-13Rα2 (He et al. 2013), CRTH2 (Zhou et al. 2015), TMEM219 (Lee et al. 2016), and galectin-3 (Zhou et al. 2015). […] Therefore, purified antibody leads were functionally screened for their ability to block CHI3L1 binding to IL-13Rα2 on A549 cell line (FIG. 3A). […] The sequences and defied CDR regions among those monoclonal antibodies are listed and summarized in the sequences list (SEQ ID NOs: 1 to 88) and Table 2, respectively. Anti-CHI3L1 clone R4-2 heavy chain (SEQ ID NO: 1), anti-CHI3L1 clone R4-2 light chain (SEQ ID NO: 2), anti-CHI3L1 clone R4-4 heavy chain (SEQ ID NO: 9), anti-CHI3L1 clone R4-4 light chain (SEQ ID NO: 10), anti-CHI3L1 clone R4-39 heavy chain (SEQ ID NO: 17), anti-CHI3L1 clone R4-39 light chain (SEQ ID NO: 18), anti-CHI3L1 clone R4-53 heavy chain (SEQ ID NO: 25), anti-CHI3L1 clone R4-53 light chain (SEQ ID NO: 26), anti-CHI3L1 clone R4-54 heavy chain (SEQ ID NO: 33), anti-CHI3L1 clone R4-54 light chain (SEQ ID NO: 34), anti-CHI3L1 clone R4-62 heavy chain (SEQ ID NO: 41), anti-CHI3L1 clone R4-62 light chain (SEQ ID NO: 42), anti-CHI3L1 clone R4-63 heavy chain (SEQ ID NO: 49), anti-CHI3L1 clone R4-63 light chain (SEQ ID NO: 50), anti-CHI3L1 clone R4-93 heavy chain (SEQ ID NO: 57), anti-CHI3L1 clone R4-93 light chain (SEQ ID NO: 58), anti-CHI3L1 clone 293R3-2 heavy chain (SEQ ID NO: 65), anti-CHI3L1 clone 293R3-2 light chain (SEQ ID NO: 66), anti-CHI3L1 clone 293R3-4 heavy chain (SEQ ID NO: 73), anti-CHI3L1 clone 293R3-4 light chain (SEQ ID NO: 74), anti-CHI3L1 clone 293R3-5 heavy chain (SEQ ID NO: 81), and anti-CHI3L1 clone 293R3-5 light chain (SEQ ID NO: 82) are shown in sequence listing.

MiaPaCa-2 cells = assay: MiaPaCa-2 subcutaneous xenograft NOD-SCID mice, efficacy and toxicity; assay type: in vivo; conditions: for histology of liver, lung and kidney / mice body weight / serum level of GOT, GPT, BUN, albumin and creatinine: 5 mg/kg i.v.; for growth of MiaPaCa-2 subcutaneous xenografts: 5 mg/kg i.v. day 7, 14, 21, sacrificed day 28; for mice body weight / serum level of GOT, GPT, BUN, albumin and creatinine: vs IgG control
Method: Next, we examined whether our mAb clones R4-4 and R4-54 exert any toxicity in vivo. We performed a xenograft model by subcutaneously implanting MiaPaCa-2 cells to NOD-SCID mice. The mice were i.v. injected with IgG isotype, mAb clone R4-4, or clone R4-54 (5 mg/kg) once a week starting from day 7 to day 21, that is, day 7, day 14, and day 21, and mice were sacrificed on day 28. […] To evaluate the potential safety of our developed mAbs, we examined body weight, serum biochemical markers and histology sections of three major organs of tumor-bearing mice. […] Scale bar 100 μm. P values were determined by one-way ANOVA. * P<0.05, ** P<0.01, *** P<0.001, **** P<0.0001.

Molecule	cell migration ability induced by rCHI3L1 (wound closure area) [1]	binding specificity: recognition of CHI3L2 (CHI3L2)	cell viability (CCK-8) (PANC1 and H460 cells)	CHI3L1 neutralizing activity [2]	histology of liver, lung and kidney (MiaPaCa-2 cells)	growth of MiaPaCa-2 subcutaneous xenografts (MiaPaCa-2 cells)	mice body weight (MiaPaCa-2 cells)	serum level of GOT, GPT, BUN, albumin and creatinine (MiaPaCa-2 cells)
B1	significantly reduced cell migration ability	no other chitinase proteins	reduced the viability	best neutralizing activity	–	–	–	–
B2	significantly reduced cell migration ability	no other chitinase proteins	reduced the viability	best neutralizing activity	–	–	–	–
B3	significantly reduced cell migration ability	no other chitinase proteins	reduced the viability	–	no significant adverse effects	significantly delayed the growth	no significant change in mice body weight	No obvious difference
B4	significantly reduced cell migration ability	no other chitinase proteins	reduced the viability	best neutralizing activity	no significant adverse effects	significantly delayed the growth	no significant change in mice body weight	No obvious difference
